Patent US20200216495A1 (ADRX, published 2020)
Square brackets hold non-standard residues; d marks the D form. Ends that are not written are not given here. dCit = NC(=O)NCCC[C@@H](N)C(=O)O

target: Ac-VQIINK-NH2 (SEQ ID NO: 23) (N-terminal acetyl (Ac); C-terminal amide (NH2)); experiment: cell-based or functional assay

VQIINK Inhibition IC50 [µm]	Binder
2.1	[dL][dR][dI][dE][dI][dE][dW][dH] [lrieiewh]
2.29	[dF][dR][dL][dR][dI][dW][dW][dF] [frlriwwf]
2.12	[dW][dR][dL][dQ][dV][dR][dW] [wrlqvrw]
2.15	[dW][dR][dL][dK][dV][dQ][dW] [wrlkvqw]
2.2	[dW][dR][dL][dE][dI][dH][dW] [wrleihw]
2.17	[dW][dK][dV][dW][dV][dR]G[dW] (not fully specified (residue 7); printed as wkvwvrgw) [wkvwvrgw]
2.2	[dF][dK][dL][dK][dL][dR][dW][dF] [fklklrwf]
2.35	[dF][dK][dI][dK][dI][dK][dW] (not fully specified; printed as fkikikw) [fkikikw]
2.12	[dW][dH][dV][dK][dF][dE][dL][dF] [whvkfelf]
2.02	[dF][dR][dI][dR][dI][dH][dH][dF] [fririhhf]
2.23	[dW][dR][dL][dR][dI][dH][dW] [wrlrihw]
2.13	[dL][dK][dI][dCit][dI][dH][dY] [lkizihy]
2.11	[dW][dW][dL][dR][dI][dH][dW] [wwlrihw]
2.38	[dL][dK][dI][dH][dI][dR][dH][dW] [lkihirhw]
2.26	[dL][dK][dI][dA][dI][dH][dY][dH] [lkiaihyh]
1.98	[dL][dA][dI][dR][dI][dH][dY][dH] [lairihyh]
2.01	[dF][dH][dI][dR][dL][dE][dW][dH] [fhirlewh]
1.99	[dL][dK][dI][dR][dI][dH][dY][dH] [lkirihyh]
2.23	[dW][dR][dL][dK][dF][dR][dW] [wrlkfrw]
2.27	[dW][dQ][dL][dK][dV][dQ][dW] [wqlkvqw]
2.21	[dW][dK][dV][dQ][dV][dR][dW] [wkvqvrw]
1.99	[dW][dW][dL][dK][dL][dR][dW] [wwlklrw]
1.98	[dW][dR][dL][dR][dI][dE][dW] [wrlriew]
